Laboratory results: US20260176319A1 (KALLYOPE, published 2026)
Starred links: 1 amine or outer side, 2 acyl side, 3 side chain; linkers in the order of their positions; H or OH if unused. Non-standard residues stand in square brackets, D forms with d. Groups on a side chain read outwards from the residue. *: point of attachment. Trp(7-F) = N[C@@H](Cc1c[nH]c2c(F)cccc12)C(=O)O; Trp(7-Me) = Cc1cccc2c(C[C@H](N)C(=O)O)c[nH]c12; d(γGlu) = O=C(O)[C@@H](CCC(=O)[*:2])N[*:1]; C18 diacid = O=C(O)CCCCCCCCCCCCCCCCC(=O)*; Palmitoyl = CCCCCCCCCCCCCCCC(=O)*; 2Pal = N[C@@H](Cc1ccccn1)C(=O)O; 3Pal = N[C@@H](Cc1cccnc1)C(=O)O; 4Pal = N[C@@H](Cc1ccncc1)C(=O)O; Nle = CCCC[C@H](N)C(=O)O; AEEA = NCCOCCOCC(=O)O; Aib = CC(C)(N)C(=O)O; Sar = CNCC(=O)O

target: human GRP receptor (human, UniProt P30550 1-384); experiment: cell-based or functional assay
Sequence (P30550 whole entry): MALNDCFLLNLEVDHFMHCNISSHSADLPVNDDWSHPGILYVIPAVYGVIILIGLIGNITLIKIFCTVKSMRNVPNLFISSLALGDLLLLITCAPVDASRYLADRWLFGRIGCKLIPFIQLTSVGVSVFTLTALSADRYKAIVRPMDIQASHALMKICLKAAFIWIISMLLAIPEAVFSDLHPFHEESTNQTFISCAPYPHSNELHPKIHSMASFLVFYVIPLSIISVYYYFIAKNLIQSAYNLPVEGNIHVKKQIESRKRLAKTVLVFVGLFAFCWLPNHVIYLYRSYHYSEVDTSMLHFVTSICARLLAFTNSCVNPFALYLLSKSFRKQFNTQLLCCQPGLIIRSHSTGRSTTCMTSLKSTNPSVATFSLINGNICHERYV

| hIP1 GRPR EC50 [nM] | Binder |
| --- | --- |
| 183 | Palmitoyl-[d(γGlu)][AEEA][AEEA]GEHWAV[Aib]HL[Nle]-NH2 (SMILES CCCCCCCCCCCCCCCC(=O)N[C@H](CCC(=O)NCCOCCOCC(=O)NCCOCCOCC(=O)NCC(=O)N[C@@H](CCC(=O)O)C(=O)N[C@@H](Cc1c[nH]cn1)C(=O)N[C@@H](Cc1c[nH]c2ccccc12)C(=O)N[C@@H](C)C(=O)N[C@H](C(=O)NC(C)(C)C(=O)N[C@@H](Cc1c[nH]cn1)C(=O)N[C@@H](CC(C)C)C(=O)N[C@@H](CCCC)C(N)=O)C(C)C)C(=O)O) [Peptide 24] |
| 10000 | GNHWAVXHLX (not fully specified; Ac-Gly-Asn-His-Trp-Ala-Val-D-Ala-His-Leu-Nle-H2N(CH2)3NH2-OEG-OEG-(α-Palmitoyl-D-γGlu)) [Peptide 25] |
| 1.8 | Palmitoyl-[d(γGlu)]GNHWAV[dA]HL[Nle]-NH2 (SMILES CCCCCCCCCCCCCCCC(=O)N[C@H](CCC(=O)NCC(=O)N[C@@H](CC(N)=O)C(=O)N[C@@H](Cc1c[nH]cn1)C(=O)N[C@@H](Cc1c[nH]c2ccccc12)C(=O)N[C@@H](C)C(=O)N[C@H](C(=O)N[C@H](C)C(=O)N[C@@H](Cc1c[nH]cn1)C(=O)N[C@@H](CC(C)C)C(=O)N[C@@H](CCCC)C(N)=O)C(C)C)C(=O)O) [Peptide 26] |
| 216 | {C18 diacid}-[d(γGlu)][AEEA][AEEA]GNHWAV[dA]HL[Nle][Sar]-NH2 (SMILES CCCC[C@H](NC(=O)[C@H](CC(C)C)NC(=O)[C@H](Cc1c[nH]cn1)NC(=O)[C@@H](C)NC(=O)[C@@H](NC(=O)[C@H](C)NC(=O)[C@H](Cc1c[nH]c2ccccc12)NC(=O)[C@H](Cc1c[nH]cn1)NC(=O)[C@H](CC(N)=O)NC(=O)CNC(=O)COCCOCCNC(=O)COCCOCCNC(=O)CC[C@@H](NC(=O)CCCCCCCCCCCCCCCCC(=O)O)C(=O)O)C(C)C)C(=O)N(C)CC(N)=O) [Peptide 47] |
| 8.7 | Palmitoyl-[d(γGlu)][AEEA][AEEA]GN[3Pal]WAV[Aib]HL[Nle]-NH2 (SMILES CCCCCCCCCCCCCCCC(=O)N[C@H](CCC(=O)NCCOCCOCC(=O)NCCOCCOCC(=O)NCC(=O)N[C@@H](CC(N)=O)C(=O)N[C@@H](Cc1cccnc1)C(=O)N[C@@H](Cc1c[nH]c2ccccc12)C(=O)N[C@@H](C)C(=O)N[C@H](C(=O)NC(C)(C)C(=O)N[C@@H](Cc1c[nH]cn1)C(=O)N[C@@H](CC(C)C)C(=O)N[C@@H](CCCC)C(N)=O)C(C)C)C(=O)O) [Peptide 3] |
| 2.01 | Palmitoyl-[d(γGlu)][AEEA][AEEA][AEEA][AEEA]GNH[Trp(7-Me)]AV[dA]HL[Nle]-NH2 (SMILES CCCCCCCCCCCCCCCC(=O)N[C@H](CCC(=O)NCCOCCOCC(=O)NCCOCCOCC(=O)NCCOCCOCC(=O)NCCOCCOCC(=O)NCC(=O)N[C@@H](CC(N)=O)C(=O)N[C@@H](Cc1c[nH]cn1)C(=O)N[C@@H](Cc1c[nH]c2c(C)cccc12)C(=O)N[C@@H](C)C(=O)N[C@H](C(=O)N[C@H](C)C(=O)N[C@@H](Cc1c[nH]cn1)C(=O)N[C@@H](CC(C)C)C(=O)N[C@@H](CCCC)C(N)=O)C(C)C)C(=O)O) [Peptide 59] |

Further lines, the binder ahead of its results:

| Binder | hIP1 GRPR EC50 [nM] |
| --- | --- |
| {C18 diacid}-[dE][AEEA][AEEA]GNH[Trp(7-Me)]AV[dA]HL[Nle]-NH2 (SMILES CCCC[C@H](NC(=O)[C@H](CC(C)C)NC(=O)[C@H](Cc1c[nH]cn1)NC(=O)[C@@H](C)NC(=O)[C@@H](NC(=O)[C@H](C)NC(=O)[C@H](Cc1c[nH]c2c(C)cccc12)NC(=O)[C@H](Cc1c[nH]cn1)NC(=O)[C@H](CC(N)=O)NC(=O)CNC(=O)COCCOCCNC(=O)COCCOCCNC(=O)[C@@H](CCC(=O)O)NC(=O)CCCCCCCCCCCCCCCCC(=O)O)C(C)C)C(N)=O) [Peptide 46] | 9.9 |
| Palmitoyl-[d(γGlu)][AEEA][AEEA]GNHWAV[Aib][3Pal]L[Nle]-NH2 (SMILES CCCCCCCCCCCCCCCC(=O)N[C@H](CCC(=O)NCCOCCOCC(=O)NCCOCCOCC(=O)NCC(=O)N[C@@H](CC(N)=O)C(=O)N[C@@H](Cc1c[nH]cn1)C(=O)N[C@@H](Cc1c[nH]c2ccccc12)C(=O)N[C@@H](C)C(=O)N[C@H](C(=O)NC(C)(C)C(=O)N[C@@H](Cc1cccnc1)C(=O)N[C@@H](CC(C)C)C(=O)N[C@@H](CCCC)C(N)=O)C(C)C)C(=O)O) [Peptide 2] | 822 |
| Palmitoyl-[d(γGlu)][AEEA][AEEA]GNHWAV[dA]HL[Nle][Sar]-NH2 (SMILES CCCCCCCCCCCCCCCC(=O)N[C@H](CCC(=O)NCCOCCOCC(=O)NCCOCCOCC(=O)NCC(=O)N[C@@H](CC(N)=O)C(=O)N[C@@H](Cc1c[nH]cn1)C(=O)N[C@@H](Cc1c[nH]c2ccccc12)C(=O)N[C@@H](C)C(=O)N[C@H](C(=O)N[C@H](C)C(=O)N[C@@H](Cc1c[nH]cn1)C(=O)N[C@@H](CC(C)C)C(=O)N[C@@H](CCCC)C(=O)N(C)CC(N)=O)C(C)C)C(=O)O) [Peptide 48] | 1.1 |
| EXXGNHWAVXHLK (Palmitoyl-D-γGlu-OEG-OEG-Gly-Asn-His-Trp-Ala-Val-D-Ala-His-Leu-Lys(Me)3-NH2) [Peptide 49] | 4040 |
| Palmitoyl-[d(γGlu)][AEEA][AEEA]GN[2Pal]WAV[dA]HL[Nle]-NH2 (SMILES CCCCCCCCCCCCCCCC(=O)N[C@H](CCC(=O)NCCOCCOCC(=O)NCCOCCOCC(=O)NCC(=O)N[C@@H](CC(N)=O)C(=O)N[C@@H](Cc1ccccn1)C(=O)N[C@@H](Cc1c[nH]c2ccccc12)C(=O)N[C@@H](C)C(=O)N[C@H](C(=O)N[C@H](C)C(=O)N[C@@H](Cc1c[nH]cn1)C(=O)N[C@@H](CC(C)C)C(=O)N[C@@H](CCCC)C(N)=O)C(C)C)C(=O)O) [Peptide 51] | 0.95 |
| Palmitoyl-[d(γGlu)][AEEA][AEEA]GN[4Pal]WAV[dA]HL[Nle]-NH2 (SMILES CCCCCCCCCCCCCCCC(=O)N[C@H](CCC(=O)NCCOCCOCC(=O)NCCOCCOCC(=O)NCC(=O)N[C@@H](CC(N)=O)C(=O)N[C@@H](Cc1ccncc1)C(=O)N[C@@H](Cc1c[nH]c2ccccc12)C(=O)N[C@@H](C)C(=O)N[C@H](C(=O)N[C@H](C)C(=O)N[C@@H](Cc1c[nH]cn1)C(=O)N[C@@H](CC(C)C)C(=O)N[C@@H](CCCC)C(N)=O)C(C)C)C(=O)O) [Peptide 52] | 1.75 |
| {C18 diacid}-[d(γGlu)][AEEA][AEEA][AEEA][AEEA]GNHWAV[dA]HL[Nle]-NH2 (SMILES CCCC[C@H](NC(=O)[C@H](CC(C)C)NC(=O)[C@H](Cc1c[nH]cn1)NC(=O)[C@@H](C)NC(=O)[C@@H](NC(=O)[C@H](C)NC(=O)[C@H](Cc1c[nH]c2ccccc12)NC(=O)[C@H](Cc1c[nH]cn1)NC(=O)[C@H](CC(N)=O)NC(=O)CNC(=O)COCCOCCNC(=O)COCCOCCNC(=O)COCCOCCNC(=O)COCCOCCNC(=O)CC[C@@H](NC(=O)CCCCCCCCCCCCCCCCC(=O)O)C(=O)O)C(C)C)C(N)=O) [Peptide 53] | 42 |
| Palmitoyl-[d(γGlu)][AEEA][AEEA][AEEA][AEEA]GNHWAV[dA]HL[Nle]-NH2 (SMILES CCCCCCCCCCCCCCCC(=O)N[C@H](CCC(=O)NCCOCCOCC(=O)NCCOCCOCC(=O)NCCOCCOCC(=O)NCCOCCOCC(=O)NCC(=O)N[C@@H](CC(N)=O)C(=O)N[C@@H](Cc1c[nH]cn1)C(=O)N[C@@H](Cc1c[nH]c2ccccc12)C(=O)N[C@@H](C)C(=O)N[C@H](C(=O)N[C@H](C)C(=O)N[C@@H](Cc1c[nH]cn1)C(=O)N[C@@H](CC(C)C)C(=O)N[C@@H](CCCC)C(N)=O)C(C)C)C(=O)O) [Peptide 54] | 3.12 |
| Palmitoyl-[d(γGlu)][AEEA][AEEA]GNH[Trp(7-F)]AV[dA]HL[Nle]-NH2 (SMILES CCCCCCCCCCCCCCCC(=O)N[C@H](CCC(=O)NCCOCCOCC(=O)NCCOCCOCC(=O)NCC(=O)N[C@@H](CC(N)=O)C(=O)N[C@@H](Cc1c[nH]cn1)C(=O)N[C@@H](Cc1c[nH]c2c(F)cccc12)C(=O)N[C@@H](C)C(=O)N[C@H](C(=O)N[C@H](C)C(=O)N[C@@H](Cc1c[nH]cn1)C(=O)N[C@@H](CC(C)C)C(=O)N[C@@H](CCCC)C(N)=O)C(C)C)C(=O)O) [Peptide 56] | 1.97 |
| Palmitoyl-[d(γGlu)][AEEA][AEEA]GK([AEEA-AEEA-d(γGlu)-Palmitoyl])HWAV[dA]HL[Nle]-NH2 (SMILES CCCCCCCCCCCCCCCC(=O)N[C@H](CCC(=O)NCCOCCOCC(=O)NCCOCCOCC(=O)NCCCC[C@H](NC(=O)CNC(=O)COCCOCCNC(=O)COCCOCCNC(=O)CC[C@@H](NC(=O)CCCCCCCCCCCCCCC)C(=O)O)C(=O)N[C@@H](Cc1c[nH]cn1)C(=O)N[C@@H](Cc1c[nH]c2ccccc12)C(=O)N[C@@H](C)C(=O)N[C@H](C(=O)N[C@H](C)C(=O)N[C@@H](Cc1c[nH]cn1)C(=O)N[C@@H](CC(C)C)C(=O)N[C@@H](CCCC)C(N)=O)C(C)C)C(=O)O) [Peptide 57] | 72.8 |
| Palmitoyl-[d(γGlu)][AEEA][AEEA][AEEA][AEEA]GN[3Pal][Trp(7-Me)]AV[dA]HL[Nle]-NH2 (SMILES CCCCCCCCCCCCCCCC(=O)N[C@H](CCC(=O)NCCOCCOCC(=O)NCCOCCOCC(=O)NCCOCCOCC(=O)NCCOCCOCC(=O)NCC(=O)N[C@@H](CC(N)=O)C(=O)N[C@@H](Cc1cccnc1)C(=O)N[C@@H](Cc1c[nH]c2c(C)cccc12)C(=O)N[C@@H](C)C(=O)N[C@H](C(=O)N[C@H](C)C(=O)N[C@@H](Cc1c[nH]cn1)C(=O)N[C@@H](CC(C)C)C(=O)N[C@@H](CCCC)C(N)=O)C(C)C)C(=O)O) [Peptide 58] | 4.22 |
